Seven variants from FireProtDB (doi:10.1016/j.bbadis.2004.06.012) can be followed below.

The labels stand for the following.
B1: Aryl-hydrocarbon-interacting protein-like 1, Q9NZN9 (parent)
chain: MDAALLLNVEGVKKTILHGGTGELPNFITGSRVIFHFRTMKCDEERTVIDDSRQVGQPMHIIIGNMFKLEVWEILLTSMRVHEVAEFWCDTIHTGVYPILSRSLRQMAQGKDPTEWHVHTCGLANMFAYHTLGYEDLDELQKEPQPLVFVIELLQVDAPSDYQRETWNLSNHEKMKAVPVLHGEGNRLFKLGRYEEASSKYQEAIICLRNLQTKEKPWEVQWLKLEKMINTLILNYCQCLLKKEEYYEVLEHTSDILRHHPGIVKAYYVRARAHAEVWNEAEAKADLQKVLELEPSMQKAVRRELRLLENRMAEKQEEERLRCRNMLSQGATQPPAEPPTEPPAQSSTEPPAEPPTAPSAELSAGPPAEPATEPPPSPGHSLQH

The variants in this series derive from B1. The following applies: Homo sapiens; pH 7.9; Thermal; CD; sodium Phosphate 5 mM; transition: 2; whole UniProt chain shown.

Usually Tm stands for the temperature at which the thermal transition is half complete. For the variant C239R, the Tm is 46.7 °C and the “change of melting temperature, mutant - wild type (higher = more stable)” value (shortened to “change of melting temperature, mutant”) was 2.6 °C.

Turning to T114I, the midpoint of thermal melting (Tm) stood at 34.8 °C and the “change of melting temperature, mutant” value is -9.3 °C.

As to W278X, the melting temperature (Tm) is 33.2 °C and the “change of melting temperature, mutant” value was -10.9 °C.

For the variant G262S, the Tm came out at 40.1 °C and the “change of melting temperature, mutant” value was -4 °C.

Regarding I206N, the Tm amounted to 41.4 °C and the “change of melting temperature, mutant” value was -2.7 °C.

Regarding R302L, the Tm is 43.2 °C and the “change of melting temperature, mutant” value was -0.9 °C.

As to A197P, the Tm was 40.5 °C and the “change of melting temperature, mutant” value was -3.6 °C.
